Assay results published in US20050227220A1, “Compositions and Methods for Evaluating and Designing Nuclear Receptor Ligands that Modulate Co-Regulator Affinity” (priority 2002, published 2005).
Primed or numbered codes have the meaning given here. No end group written: not given here. *: point of attachment. fluorescein″ = fluorescein label attached to the peptide N-terminus; Biotin = O=C1N[C@H]2[C@H](CS[C@H]2CCCCC(=O)*)N1

B1: GAL4-NcoR (2239-2300) (other)
chain: MKLLSSIEQACDICRLKKLKCSKEKPKCAKCLKNNWECRYSPKTKRSPLTRAHLTEVESRLERLEQLFLLIFPREDLDMILKMDSLQDIKALLTGLFVQDNVNKDAVTDRLASVETDMPLTLRQHRISATSSSEESSNKGQRQLTVSPAVTTSGSVSSRGHSFADPASNLGLEDIIRKALMGSFDDKVEDHGVVMSQPMGVVPGTANTS
notes: range 1-147;range 2239-2300; also called GAL4-NCoR 2239 to 2300
B2: VP16-human PPARγ2 (full length) (other)
chain: LSTAPPTDVSLGDELHLDGEDVAMAHADALDDFDLDMLGDGDSPGPGFTPHDSAPYGALDMADFEFEQMFTDALGIDEYGGMGETLGDSPIDPESDSFTDTLSANISQEMTMVDTEMPFWPTNFGISSVDLSVMEDHSHSFDIKPFTTVDFSSISTPHYEDIPFTRTDPVVADYKYDLKLQEYQSAIKVEPASPPYYSEKTQLYNKPHEEPSNSLMAIECRVCGDKASGFHYGVHACEGCKGFFRRTIRLKLIYDRCDLNCRIHKKSRNKCQYCRFQKCLAVGMSHNAIRFGRMPQAEKEKLLAEISSDIDQLNPESADLRALAKHLYDSYIKSFPLTKAKARAILTGKTTDKSPFVIYDMNSLMMGEDKIKFKHITPLQEQSKEVAIRIFQGCQFRSVEAVQEITEYAKSIPGFVNLDLNDQVTLLKYGVHEIIYTMLASLMNKDGVLISEGQGFMTREFLKSLRKPFGDFMEPKFEFAVKFNALELDDSDLAIFIAVIILSGDRPGLLNVKPIEDIQDNLLQALELQLKLNHPESSQLFAKLLQKMTDLRQIVTEHVQLLQVIKKTETDMSLHPLLQEIYKDLY
B3: TRβ ligand binding domain (receptor, UniProt P10828 202-461, looked up)
chain: EELQKSIGHKPEPTDEEWELIKTVTEAHVATNAQGSHWKQKRKFLPEDIGQAPIVNAPEGGKVDLEAFSHFTKIITPAITRVVDFAKKLPMFCELPCEDQIILLKGCCMEIMSLRAAVRYDPESETLTLNGEMAVTRGQLKNGGLGVVSDAIFDLGMSLSSFNLDDTEVALLQAVLLMSSDRPGLACVERIEKYQDSFLLAFEHYINYRKHHVTHFWPKLLMKVTDLRMIGACHASRFLHMKVECPTELFPPLFLEVFED
notes: also called Thyroid Receptor LBD; TRβ LBD
B6: SRC-1 peptide (amino acids 676-700) (peptide)
peptide: Biotin-CPSSHSSLTERHKILHRLLQEGSPS
modifications: also: fluorescent label in polarization assay, not given here
notes: also called SRC-1 (LCD2) 676-700; SRC peptide

Assays:
[1] = target: Fluoroscein-SMRT ID-C peptide; assay: fluorescence polarization, 10 nM fluorescein peptide, LBD titrated, no ligand
[2] = target: Fluoroscein-NCOR ID-C peptide (NCoR amino acids 2251-2275); assay: as above
[3] = target: Fluoroscein-SMRT ID-C peptide; assay: fluorescence polarization
[4] = target: Fluoroscein-NCOR ID-C peptide (NCoR amino acids 2251-2275); assay: fluorescence polarization
[5] = target: B2; assay: mammalian two-hybrid in CV-1 cells
[6] = target: T1, VP16-human PPARα (full length) (human, UniProt P06492 410-490; Q07869 1-468); assay: mammalian two-hybrid in CV-1 cells
T1 construct: also called VP16 full length PPARα

GAL4-CBP (1-115) = GAL4-CBP (1-115) (UniProt P04386 1-147; P45481 1-115); assay: cell-based or functional assay
GAL4-NcoR (2239-2300) = target: B1; assay: cell-based or functional assay
[7] = target: T2, Fluoroscein-NCOR ID-C peptide (NCoR amino acids 2251-2275) (N-terminal fluorescein); assay: fluorescence polarization, no ligand
T2 construct: also called NCOR peptide; NCoR 2251-2275
T2 peptide: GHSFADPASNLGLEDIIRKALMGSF

[8] = target: T2, Fluoroscein-NCOR ID-C peptide (NCoR …); assay: fluorescence polarization, with agonist ligand T3
[9] = target: B6; assay: fluorescence polarization, with agonist ligand T3
[10] = target: T3, human PPARδ ligand binding domain (amino acids 139-441) (human, UniProt Q03181 139-441, Biotinylated (site not stated) in the FRET assays; unlabelled in fluorescence polarization and SPR.); assay: fluorescence polarization, 10 nM fluorescein peptide, LBD titrated, no ligand
T3 construct: placed at the N-terminus here; Biotinylated for FRET; also called PPARδ LBD
T3 sequence: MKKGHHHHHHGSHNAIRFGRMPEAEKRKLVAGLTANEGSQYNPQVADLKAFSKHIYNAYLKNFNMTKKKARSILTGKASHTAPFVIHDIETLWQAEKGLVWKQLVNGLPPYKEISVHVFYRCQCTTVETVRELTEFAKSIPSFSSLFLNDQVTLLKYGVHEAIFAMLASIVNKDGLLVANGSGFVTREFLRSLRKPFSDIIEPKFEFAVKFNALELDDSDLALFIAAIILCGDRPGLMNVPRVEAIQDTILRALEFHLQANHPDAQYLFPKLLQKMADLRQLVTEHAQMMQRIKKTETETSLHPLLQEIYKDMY

[11] = target: B3; assay: as above
[12] = target: T4, RARα ligand binding domain (amino acids 146-432) (UniProt P10276 146-432); assay: as above
T4 construct: range 146-432; not shown: His-tag
T4 sequence (looked up): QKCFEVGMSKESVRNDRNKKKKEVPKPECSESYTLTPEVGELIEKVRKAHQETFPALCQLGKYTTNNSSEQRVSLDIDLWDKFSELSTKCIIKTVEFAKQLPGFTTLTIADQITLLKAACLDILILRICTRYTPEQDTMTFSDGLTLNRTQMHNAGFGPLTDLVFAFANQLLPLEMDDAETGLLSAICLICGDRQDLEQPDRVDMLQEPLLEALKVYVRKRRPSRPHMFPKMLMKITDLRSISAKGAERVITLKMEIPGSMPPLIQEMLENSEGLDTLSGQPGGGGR

[13] = target: T5, RXRα ligand binding domain (amino acids 225-462) (UniProt P19793 225-462); assay: as above
T5 construct: range 225-462; Biotinylated for FRET; also called RXRα LBD; not shown: His-tag
T5 sequence (looked up): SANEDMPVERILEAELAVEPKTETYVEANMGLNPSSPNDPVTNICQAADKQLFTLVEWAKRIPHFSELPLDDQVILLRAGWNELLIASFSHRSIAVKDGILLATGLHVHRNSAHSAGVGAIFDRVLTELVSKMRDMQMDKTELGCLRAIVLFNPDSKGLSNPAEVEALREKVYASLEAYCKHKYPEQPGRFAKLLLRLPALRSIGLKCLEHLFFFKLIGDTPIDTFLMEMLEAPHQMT

[14] = target: T6, ERβ ligand binding domain (amino acids 257-530) (UniProt Q92731 257-530); assay: as above
T6 construct: range 257-530; not shown: His-tag
T6 sequence (Q92731 257-530 limits assumed): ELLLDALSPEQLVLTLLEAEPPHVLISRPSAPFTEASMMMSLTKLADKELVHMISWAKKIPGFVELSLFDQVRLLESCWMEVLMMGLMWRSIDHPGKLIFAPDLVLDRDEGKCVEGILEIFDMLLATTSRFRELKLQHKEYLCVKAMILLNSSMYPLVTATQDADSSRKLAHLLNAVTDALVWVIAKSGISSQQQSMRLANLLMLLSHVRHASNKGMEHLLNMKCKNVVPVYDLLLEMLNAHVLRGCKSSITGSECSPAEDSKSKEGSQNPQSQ

[15] = target: T7, human PPARα ligand binding domain (amino acids 192-468) (human, UniProt Q07869 192-468); assay: as above
T7 construct: range 192-468; placed at the N-terminus here; Biotinylated for FRET; also called PPARα LBD
T7 sequence: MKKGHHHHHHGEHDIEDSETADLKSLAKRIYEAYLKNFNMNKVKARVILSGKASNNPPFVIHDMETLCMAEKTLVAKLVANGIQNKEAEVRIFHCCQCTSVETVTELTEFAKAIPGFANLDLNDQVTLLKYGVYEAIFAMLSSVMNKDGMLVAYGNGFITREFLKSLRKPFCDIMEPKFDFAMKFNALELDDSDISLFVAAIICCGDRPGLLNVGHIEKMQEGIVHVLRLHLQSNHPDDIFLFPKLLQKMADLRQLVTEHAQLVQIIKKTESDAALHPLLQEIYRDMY

[16] = target: T8, human PPARγ ligand binding domain (amino acids 206-477) (human, UniProt P37231-2 206-477); assay: as above
T8 construct: range 206-477; placed at the N-terminus here; Biotinylated for FRET; also called PPARγ LBD
T8 sequence: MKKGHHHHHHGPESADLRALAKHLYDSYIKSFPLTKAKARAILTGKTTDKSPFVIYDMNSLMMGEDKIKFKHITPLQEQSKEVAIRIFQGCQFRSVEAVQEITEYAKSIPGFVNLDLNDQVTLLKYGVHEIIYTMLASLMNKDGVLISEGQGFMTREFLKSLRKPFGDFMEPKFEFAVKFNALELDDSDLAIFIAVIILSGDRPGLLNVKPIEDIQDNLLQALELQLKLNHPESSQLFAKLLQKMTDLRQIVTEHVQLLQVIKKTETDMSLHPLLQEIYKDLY

[17] = target: T9, biotin-NCOR ID-C peptide (NCoR amino acids 2251-2275) (N-terminal biotin); assay: time-resolved FRET (ratio 665 nm/620 nm), biotinylated NCOR (2251-2275) peptide on europium streptavidin with APC-labeled LXRα LBD, test compound at 2 µM; normalized to % inhibition or activation
T9 construct: also called NCOR-derived co-repressor peptide
T9 peptide: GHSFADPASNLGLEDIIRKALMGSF

[18] = target: B3; assay: fluorescence polarization, apparent affinity, no ligand

“RXRαΔAF2 ligand binding domain (amino acids 225-446) (from UniProt P19793 225-446) (receptor)” showed a Kd [1] of 0.25 µM, a Kd [2] of 0.39 µM and a fold greater affinity against RXRα ligand binding domain [3] of 100 fold. For the same molecule, the fold greater affinity against RXRα ligand binding domain [4] was 100 fold.

B1: binds [5]; binds [6].

For B2, the “mammalian two-hybrid reporter, fold association with GW1929 and GW7845” value (GAL4-CBP (1-115)) was ~3 fold and the “mammalian two-hybrid reporter, fold dissociation with GW1929 and GW7845” value (GAL4-NcoR (2239-2300)) was ~3 fold.

In the case of B3, the “fold greater affinity against the coactivator peptide (SRC-1)” value [7] is reported as 10 fold, the “fold decrease in affinity with T3 against no ligand” value [8] is reported as 9 fold and the “fold greater affinity against the co-repressor peptide (NCoR ID-C)” value [9] is reported as 48 fold. For the same molecule, the “fold increase in affinity with T3 against no ligand” value [9] was 50 fold.

B4: Fluoroscein-SMRT ID-C peptide (peptide)
peptide: {fluorescein″}-TNMGLEAIIFKALMGKYDQWEE
B4 was tested, and the Kd [10] was 7.7 µM, the Kd [11] was 0.74 µM and the Kd [12] was 2.1 µM. It also gave a Kd [13] of 20 µM, a Kd [14] of 30 µM and a Kd [15] of 6.1 µM. It also gave a Kd [16] of 1.8 µM.

B5: LXR alpha LBD (receptor, not shown: small tags and cut ends)
chain: EEEQAHATSLPPRASSPPQILPQLSPEQLGMIEKLVAAQQQCNRRSFSDRLRVTPWPMAPDPHSREARQQRFAHFTELAIVSVQEIVDFAKQLPGFLQLSREDQIALLKTSAIEVMLLETSRRYNPGSESITFLKDFSYNREDFAKAGLQVEFINPIFEFSRAMNELQLNDAEFALLIAISIFSADRPNVQDQLQVERLQHTYVEALHAYVSIHHPHDRLMFPRMLMKLVSLRTLSSVHSEQVFALRLQDKKLPPLLSEIWDVHE
modifications: Biotinylated and bound to streptavidin-APC in the assay; His-tag not written
notes: also called LXRα
B5: binds [17].

Molecule B6 has a Kd [18] of 7.1 µM.
